Laboratory results reported in publication PMC9168836, “Clamping of DNA shuts the condensin neck gate” (Proceedings of the National Academy of Sciences of the …, 2021).

Key:
[1] = target: Ycg1 (HAWK);Brn1 (kleisin) (Saccharomyces cerevisiae;Saccharomyces …, UniProt Q06680;P38170 1-1035;1-754, |); assay: cryo-EM structure; Ycg1-Brn1 part of the condensin pentamer; ADP.BeF3, Mg2+ in sample; 3.2 A; 30 mM Tris/HCl pH 7.5, 60 mM NaCl, 1 mM TCEP, 2 mM MgCl2, 5 mM ADP, 1 mM BeSO4, 10 mM NaF; 30 min at room temperature; 1-2 uM 80-bp DNA or 100 nM circular DNA; settings: protein: recombinant;recombinant; tags: see P1;see P1; copies: 1;1; blunt
[2] = target: Smc2;Smc4;Brn1 (kleisin);Ycs4 (HAWK) (Saccharomyces cerevisiae;Saccharomyces …, UniProt P38989;Q12267;P38170;Q06156 1-1170;1-1418;1-754;1-1176, |||); assay: cryo-EM structure; condensin tetramer; ADP.BeF3, Mg2+; clamped head module Form I, 2.95 A; 30 mM Tris/HCl pH 7.5, 60 mM NaCl, 1 mM TCEP, 2 mM MgCl2, 5 mM ADP, 1 mM BeSO4, 10 mM NaF; 30 min at room temperature; 1-2 uM 80-bp DNA or 100 nM circular DNA; settings: protein: recombinant;recombinant;recombinant;recombinant; copies: 1;1;1;1; blunt
Smc2;Smc4;Brn1 (kleisin);Ycs4 (HAWK), sequence (P38989 whole entry, chain 1 of 4): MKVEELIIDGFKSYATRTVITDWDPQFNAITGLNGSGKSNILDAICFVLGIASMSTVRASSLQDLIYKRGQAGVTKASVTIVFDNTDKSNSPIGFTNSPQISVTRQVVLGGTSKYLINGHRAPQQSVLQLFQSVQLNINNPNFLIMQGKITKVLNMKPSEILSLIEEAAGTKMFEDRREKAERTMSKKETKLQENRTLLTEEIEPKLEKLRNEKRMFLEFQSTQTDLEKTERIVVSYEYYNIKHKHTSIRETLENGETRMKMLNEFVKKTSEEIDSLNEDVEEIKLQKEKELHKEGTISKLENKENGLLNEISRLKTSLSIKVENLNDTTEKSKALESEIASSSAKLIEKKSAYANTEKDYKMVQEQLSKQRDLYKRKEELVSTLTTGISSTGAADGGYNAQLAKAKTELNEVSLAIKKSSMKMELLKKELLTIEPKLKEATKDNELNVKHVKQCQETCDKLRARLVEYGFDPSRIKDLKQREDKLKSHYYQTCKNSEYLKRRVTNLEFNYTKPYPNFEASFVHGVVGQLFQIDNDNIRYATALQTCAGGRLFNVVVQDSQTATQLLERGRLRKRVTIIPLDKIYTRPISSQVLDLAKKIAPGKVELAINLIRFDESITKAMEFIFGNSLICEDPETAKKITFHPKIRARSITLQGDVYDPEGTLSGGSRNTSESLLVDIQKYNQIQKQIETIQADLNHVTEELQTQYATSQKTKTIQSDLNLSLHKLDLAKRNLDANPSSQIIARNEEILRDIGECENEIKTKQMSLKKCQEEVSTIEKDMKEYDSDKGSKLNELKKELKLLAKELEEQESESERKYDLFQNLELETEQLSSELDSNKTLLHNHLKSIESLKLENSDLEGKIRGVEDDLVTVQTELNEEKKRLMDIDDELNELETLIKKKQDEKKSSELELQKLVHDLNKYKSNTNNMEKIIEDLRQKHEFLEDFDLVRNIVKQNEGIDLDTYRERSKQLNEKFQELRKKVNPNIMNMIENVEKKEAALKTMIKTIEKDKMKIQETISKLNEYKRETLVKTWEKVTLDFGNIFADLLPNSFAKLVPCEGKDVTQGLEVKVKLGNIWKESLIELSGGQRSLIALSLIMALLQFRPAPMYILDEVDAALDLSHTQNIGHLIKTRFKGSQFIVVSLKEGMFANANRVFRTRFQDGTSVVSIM
Smc2;Smc4;Brn1 (kleisin);Ycs4 (HAWK), sequence (Q12267 whole entry, chain 2 of 4): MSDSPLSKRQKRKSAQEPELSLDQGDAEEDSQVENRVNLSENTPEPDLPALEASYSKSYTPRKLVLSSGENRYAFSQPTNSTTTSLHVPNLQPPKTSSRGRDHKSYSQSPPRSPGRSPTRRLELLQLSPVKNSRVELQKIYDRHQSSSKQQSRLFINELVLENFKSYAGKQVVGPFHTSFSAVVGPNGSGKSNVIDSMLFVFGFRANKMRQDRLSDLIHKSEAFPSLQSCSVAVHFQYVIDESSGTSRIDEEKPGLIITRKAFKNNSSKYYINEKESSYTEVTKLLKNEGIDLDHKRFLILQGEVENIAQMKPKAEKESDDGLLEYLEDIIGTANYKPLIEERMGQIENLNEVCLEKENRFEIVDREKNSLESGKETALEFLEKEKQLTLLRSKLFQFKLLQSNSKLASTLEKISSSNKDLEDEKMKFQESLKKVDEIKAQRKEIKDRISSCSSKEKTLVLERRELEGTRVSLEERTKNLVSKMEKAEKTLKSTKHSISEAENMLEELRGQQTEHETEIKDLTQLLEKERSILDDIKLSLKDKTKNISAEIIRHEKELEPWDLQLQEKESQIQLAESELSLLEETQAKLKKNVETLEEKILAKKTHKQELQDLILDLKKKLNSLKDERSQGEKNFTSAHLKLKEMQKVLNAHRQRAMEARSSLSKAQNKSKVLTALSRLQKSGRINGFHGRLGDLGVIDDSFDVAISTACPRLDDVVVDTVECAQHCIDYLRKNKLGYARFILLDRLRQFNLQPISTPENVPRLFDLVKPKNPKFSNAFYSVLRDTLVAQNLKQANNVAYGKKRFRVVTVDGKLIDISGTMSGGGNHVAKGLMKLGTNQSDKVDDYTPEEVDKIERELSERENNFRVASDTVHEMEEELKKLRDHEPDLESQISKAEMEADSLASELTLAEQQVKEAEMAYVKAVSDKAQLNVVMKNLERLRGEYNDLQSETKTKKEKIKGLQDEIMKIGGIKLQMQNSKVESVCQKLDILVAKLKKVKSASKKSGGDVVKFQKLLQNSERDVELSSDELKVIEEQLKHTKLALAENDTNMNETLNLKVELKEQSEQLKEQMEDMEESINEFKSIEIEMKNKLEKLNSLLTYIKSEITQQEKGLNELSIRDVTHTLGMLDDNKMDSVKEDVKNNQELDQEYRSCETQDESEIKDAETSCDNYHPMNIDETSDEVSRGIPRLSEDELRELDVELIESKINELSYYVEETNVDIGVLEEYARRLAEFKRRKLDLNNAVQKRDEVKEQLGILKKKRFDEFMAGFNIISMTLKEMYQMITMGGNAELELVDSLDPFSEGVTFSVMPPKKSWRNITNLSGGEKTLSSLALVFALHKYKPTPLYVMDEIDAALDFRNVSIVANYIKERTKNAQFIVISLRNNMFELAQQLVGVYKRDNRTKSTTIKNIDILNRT
Smc2;Smc4;Brn1 (kleisin);Ycs4 (HAWK), sequence (P38170 whole entry, chain 3 of 4): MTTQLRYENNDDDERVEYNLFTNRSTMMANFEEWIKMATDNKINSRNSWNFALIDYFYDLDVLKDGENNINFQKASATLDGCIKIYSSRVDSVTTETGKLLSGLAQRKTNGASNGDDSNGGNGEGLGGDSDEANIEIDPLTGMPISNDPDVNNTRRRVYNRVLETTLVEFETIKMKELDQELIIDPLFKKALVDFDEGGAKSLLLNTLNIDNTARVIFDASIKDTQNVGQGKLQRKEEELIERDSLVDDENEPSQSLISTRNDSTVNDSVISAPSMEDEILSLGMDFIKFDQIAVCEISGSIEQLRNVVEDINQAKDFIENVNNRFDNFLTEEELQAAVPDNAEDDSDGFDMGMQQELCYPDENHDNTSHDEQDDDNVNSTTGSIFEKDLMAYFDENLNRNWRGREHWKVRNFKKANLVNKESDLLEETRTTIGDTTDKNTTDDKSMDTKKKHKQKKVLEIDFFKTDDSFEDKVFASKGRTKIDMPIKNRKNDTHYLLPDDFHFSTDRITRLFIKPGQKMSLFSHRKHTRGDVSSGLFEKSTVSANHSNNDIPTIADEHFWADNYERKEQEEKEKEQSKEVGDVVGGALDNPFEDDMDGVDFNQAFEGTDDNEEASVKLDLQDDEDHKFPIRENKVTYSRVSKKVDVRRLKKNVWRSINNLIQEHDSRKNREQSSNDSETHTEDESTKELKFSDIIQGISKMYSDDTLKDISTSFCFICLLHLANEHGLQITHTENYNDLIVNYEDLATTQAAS
Smc2;Smc4;Brn1 (kleisin);Ycs4 (HAWK), sequence (Q06156 whole entry, chain 4 of 4): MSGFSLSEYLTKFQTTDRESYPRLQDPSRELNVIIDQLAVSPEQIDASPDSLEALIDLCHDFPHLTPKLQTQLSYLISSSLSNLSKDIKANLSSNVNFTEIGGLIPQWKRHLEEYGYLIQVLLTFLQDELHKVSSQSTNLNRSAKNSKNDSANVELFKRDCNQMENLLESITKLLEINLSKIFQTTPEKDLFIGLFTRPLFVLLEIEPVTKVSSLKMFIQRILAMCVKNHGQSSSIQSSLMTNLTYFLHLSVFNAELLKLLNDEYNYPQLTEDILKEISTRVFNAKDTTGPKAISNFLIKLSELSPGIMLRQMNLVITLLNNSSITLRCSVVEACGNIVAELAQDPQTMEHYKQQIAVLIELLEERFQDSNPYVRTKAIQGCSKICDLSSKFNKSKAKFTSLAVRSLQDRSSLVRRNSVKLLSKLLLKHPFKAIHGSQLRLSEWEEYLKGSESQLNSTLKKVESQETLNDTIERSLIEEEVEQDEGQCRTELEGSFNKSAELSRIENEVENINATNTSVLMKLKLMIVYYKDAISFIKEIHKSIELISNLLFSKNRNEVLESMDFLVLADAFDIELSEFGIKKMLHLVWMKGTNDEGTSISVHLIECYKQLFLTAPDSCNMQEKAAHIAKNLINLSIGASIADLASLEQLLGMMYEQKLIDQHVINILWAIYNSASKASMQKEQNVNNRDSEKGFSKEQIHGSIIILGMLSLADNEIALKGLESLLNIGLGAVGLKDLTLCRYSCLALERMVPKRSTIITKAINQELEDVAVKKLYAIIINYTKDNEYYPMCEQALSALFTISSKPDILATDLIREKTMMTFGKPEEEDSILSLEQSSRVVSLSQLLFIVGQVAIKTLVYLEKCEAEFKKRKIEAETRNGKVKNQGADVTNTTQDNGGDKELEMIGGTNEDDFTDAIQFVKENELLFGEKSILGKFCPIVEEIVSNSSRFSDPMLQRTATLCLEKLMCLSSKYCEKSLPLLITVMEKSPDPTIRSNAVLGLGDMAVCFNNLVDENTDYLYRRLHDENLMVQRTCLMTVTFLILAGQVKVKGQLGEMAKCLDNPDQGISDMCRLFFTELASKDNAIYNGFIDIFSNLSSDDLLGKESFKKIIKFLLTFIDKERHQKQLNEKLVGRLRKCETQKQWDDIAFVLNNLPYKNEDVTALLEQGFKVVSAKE

[3] = target: Smc2;Smc4;Brn1 (kleisin);Ycs4 (HAWK);Ycg1 (HAWK) (Saccharomyces cerevisiae;Saccharomyces …, UniProt P38989;Q12267;P38170;Q06156;Q06680 1-1170;1-1418;1-754;1-1176;1-1035, ||||); assay: cryo-EM structure; condensin pentamer; ADP.BeF3, Mg2+; clamped head module map EMD-13785, Ycg1 not on head module; 30 mM Tris/HCl pH 7.5, 60 mM NaCl, 1 mM TCEP, 2 mM MgCl2, 5 mM ADP, 1 mM BeSO4, 10 mM NaF; 30 min at room temperature; 1-2 uM 80-bp DNA or 100 nM circular DNA; settings: protein: recombinant;recombinant;recombinant;recombinant;recombinant; copies: 1;1;1;1;1; blunt

Measured: binding result

B1: 80-bp dsDNA (dsDNA)
DNA 1: GAATTCGGTGCGCATAATGTATAATAAGATAAATAAGCTTAAGTTCTTCCGATGCATAATAACATAATACGTGACTTTAC
DNA 2: GTAAAGTCACGTATTATGTTATTATGCATCGGAAGAACTTAAGCTTATTTATCTTATTATACATTATGCGCACCGAATTC
binds: all assays above
